Target: another dynein heavy chain (unidentified second DHC of dynein-X) (Lytechinus variegatus (endogenous in sperm))
Test: cryo-EM structure

**Q.** “DNAHX (dynein heavy chain, XP_041462850) (natural protein)” was tested. Which percent of DNAHX particles in a two-headed dynein complex (open conformation) did it give?
**A.** 27%

**Q.** And the percent of DNAHX particles in phi particle dynein?
**A.** 13%

Source: publication PMC11785096
